Test results taken from the DeepSol protein solubility set.

Test: soluble on expression in E. coli; label from the status in PepcDB or PDB records

| Sequence | soluble on expression in E. coli |
| --- | --- |
| MSLTEHALSNARIVLEDDIILGSVLIRDGKIADISEGASKTGEDLEGDFLIPGLVELHTDHLEQHYSPRPGVIWDKIAAIQAHDAQVASSGITTVFDCLRLGSDEDGGFKKGEMREMADAIEAAADQNRLRADHLLHLRCEVASADVLEHFEDFETDPRVRLISLMDHSPGQRQFQSMDQYIFYYQKKRGLSDEAFAEFVRRRQAASAEYSAKHRDYLAASCAKRGITVASHDDATEAHVGEAIGHGVKLAEFPTSVEAAKASHSAGMSVLMGAPNIVRGKSHSGNIAARDLAEIGVLDVLSSDYVPFSLLFAPFLLADQVEAISLSEALRMVTATPARTVGLVDRGRIATGLRADLVRVHREDGVPVARSVWRQGKRVAEGHHHHHH | not soluble |
| MSLTHGDVMLLATSFAPGSSNIIYQVIDELVNYFKKFLFTVNYDSELTTIADCFDLLNIPKDHPSRNLTDTFYLDKNRLLRTHCTAATLRAVKETKKSNNPDIRIASFGAVFRKDDDDATHSHQFNQLDFMWIKKDFSLTNLKWFMQNMINHIFGENTSARFRLSHFPFTEPSFEIDIRCWLCQNGCGVCKKTRWIEVLGAGILHPQVMANMGFSDTDNIRGIAAGIGIERLVMLKHGISDIRDLYDNNFKFLAQFTEGHHHHHH | not soluble |
| MSLTKFHGVFPPVPTIVNAQGELDKVGMATLLDHLIASKVNGVLLLGSGGEFCHMTNALRLETAEFCVRHINRRIPVLLGISSTSTQEVIEYGQHADRLEVDAVLVLNPYYARLTDEYIYHHFKTVANNIKSPVILYNFPALTGQDLSVDLITRLAQDHPNIIGIKDTVDNISHIREIINNVRPVRPDFVIFSGYDEYMMDTLILGGNGGIPATANFAPQLTCGIYRAWCEKEYETMFGLQRRLSALSTIYSLDSPFFGIIKKAIQLSGVDISTHVMPPVLPANEEHISNLKQILQRAGLEGHHHHHH | soluble |
| MSLTLDVWQHIRQEAKELAENEPMLASFFHSTILKHQNLGGALSYLLANKLANPIMPAISLREIIEEAYQSNPSIIDCAACDIQAVRHRDPAVELWSTPLLYLKGFHAIQSYRITHYLWNQNRKSLALYLQNQISVAFDVDIHPAAKIGHGIMFDHATGIVVGETSVIENDVSILQGVTLGGTGKESGDRHPKVREGVMIGAGAKILGNIEVGKYAKIGANSVVLNPVPEYATAAGVPARIVSQDKAAKPAFDMNQYFIGIDDGMNLNEGGSHHHHHH | soluble |
| MSLTLQQKELFQKSPLLLENGETLSPVLVGYETYGTLSASRDNCILLEHALTGTAHAAKHFEDDAPGWWDDYIGPGKTIDTDKYFLVCTNVFGGCSGTTGPSSINPKTGEPFRLQFPGFSIKDIIKVQRELLEQLGVTRIVSVIGGSMGGMQATEWAIDYADITDSIINIASPLAAGPDAIGYNLIMRMAILNDPDFNGGNYVGQPEGGLATARMVGMMTYRTSELFSKRFERFTVAESSPAAFSKEHFQIESYLQYQGDTFVERFDANSYLYLTKAIDLFDVTAPAKDDLPAFSKIKIPYLLIGITTDQLFRIHDLRRGYELLKEWDVPVTYHEVASEYGHDAFLVEKEVPKFEPLIRSFLSNLPVKSIEGHHHHHH | soluble |
| MSLTNTTKIVFLGASSASFGLSMFRDLFASPVLAGSTLTLVGRNPETLGRMTELAKLMNARSGAGLIIEQTTDRRAALDGAGFVINATAIDRNRLWKQDFEVPKKHGIRHTLGENGGPGGLFFTLRTLPLVFDFIRDIEELCPTALFLNYSNPESRIILALGRYTKVRHIGLCHGIFMGRDAVAYIMQMPREEIEVWGAGLNHFQCLTEIRHRDTGEDLYPRFRAAEQSFDPDAWRFTRRLYRAFGYWLTCSDDHLGEYLPYGWEAGEKGYDFDQDERWRGEFLTQLNGVLGGTMPIPQWWTEPSGERGAAVIAAMLHNQKRFIESGIVINRGVIPNLPAELAVEVPVTVDAAGVHPVSLGPLPDPIAKLMLMQASVQQLAVEAAVHASKELALQALLIDPVVNSAVAAEKILDELWEINRPYIRKEGHHHHHH | not soluble |
| MSLTPDPAIDEVTARVYQIPTDAPEADGTLSWSSTTLVLAEVAAGGRRGIGYTYGDGACAQLITGALAGSVTGHSALDVAARWQAMVRAMRNNGRPGLVSCAISAVDTALWDLKGKLLGLPVCRLLGMAHDSVPIYGSGGFTSYDDNATRAQLERWVHEWRIPRVKIKIGESWGSHERRDLDRIALARTVIGPDTELYVDANGGYRRKQAIRMAHAMAGHDVTWFEEPVSSDDLAGLREVRDQVSADVTAGEYGYDLAYFHRMLAADAVDCLQIDVTRCGGITDWLRAAAVAAAHNVDVSGHCAPNLHAHVATAVANLRHLEYFHDHHRIEQMFFDGALSPQGGVLRPDQQRPGFGLEFKQRDADRYRMREGHHHHHH | soluble |
| MSLTQPFQLPHFYMPYPARLNPHLDEARAHSTRWARGMGMLEGSGIWEQSDLDAHDYGLLCAYTHPDCDGPALSLITDWYVWVFFFDDHFLETFKRTQDREGGKAYLDRLPLFMPLDLSAPVPEPENPVEAGLADLWARTVPAMSADWRKRFAVSTEHLLNESLWELSNINEGRIANPVEYIEMRRKVGGAPWSAGLVEYATAEVPAAVAGSRPLRVLMETFSDGVHLRNDLFSYQREVEEEGELSNGVLVLETFFGCTTQEAAETVNDILTSRLHQFEHTALTEVPALALEKGLTPPEVAAVAAYARGLQDWQSGGHEWHLRSSRYMNEEGHHHHHH | soluble |
| MSLTSTLLRGRTLSFVRWPETIDDHSAWRYEEDGGLLISDGRIIASGAYHDVEKQAGEGAKKIDHRPHLLLPGFIDTHVHFPQMQVIASYGAELLDWLNTYTFPEETKFANAQHGRRIARLFLDEMVRHGTTTVAAYCSVHKASAEAFFAESHDRNMLNIAGKVMMDRNAPDGVLDTPQSGYDDTKALIKEWHGKGRQHYAITPRFAITSSPEQMEMAGALCREHPGLHMQTHLSENHAEIAFTQQLYPRSRDYTDVYEHYGLLGKNSLFGHCIHLSEREADALSQSGSVAVFCPTSNLFLGSGLFDYQRFRRRDKPLRIAAATDVGGGTNYSMLRTMDEGYKVIALNGEKLNPFQSFWQITRGNAEALSVADKIGTLDQGTDADIVVLDARATPAMRLRMETAQTLAQELFLLQTLGDDRAVREVYVAGRAAKSDMANEGHHHHHH | soluble |
| MSLTSVVFLNPGNSTETFWVSYSQFMQAAARDLGLDLRILYAERDPQNTLQQARELFQGRDKPDYLMLVNEQYVAPQILRLSQGSGIKLFIVNSPLTLDQRELIGQSRQNYSDWIGSMVGDDEEAGYRMLKELLHKLGPVPAGHGIELLAFSGLKVTPAAQLRERGLRRALAEHPQVHLRQLVYGEWNRERAYRQAQQLLKRYPKTQLVWSANDEMALGAMQAARELGRKPGTDLLFSGVNSSPEALQALIDGKLSVLEAGHFTLGGWALVALHDDALGLDARRLGGPDWQLSLFQALTPAQARQLLRLGDQVGTRVDFRGLSAQGKPDSYRYPFGLQLLLREGHHHHHH | soluble |
| MSLTTLNIGLILPDVLGTYGDDGNALVLRQRARMRGINAEIQRVTLDDAVPSTLDLYCLGGGEDTAQILATEHLTKDGGLQTAAAAGRPIFAVCAGLQVLGDSFRAAGRVIDGLGLIDATTVSLQKRAIGEVETTPTRAGFTAELTERLTGFENHMGATLLGPDAEPLGRVVRGEGNTDVWAASENTDDQRQQFAEGAVQGSIIATYMHGPALARNPQLADLMLAKAMGVALKDLEPLDIDVIDRLRAERLAEGHHHHHH | soluble |
| MSLTVSPLSGSLTPIGSEVKRGAELAVQEQAAAFKALGYDLVLTPYDDQASATLAPQIARTIVADKNVLGVVGALNSSVSNVIAQAFGPAKLAMISPASTGDQLTQNGWNHFSRVVAPDSAQGVAAADYIAEELKAGSVVVISDNTAYGNGLTRVLMANLKKRKVPVAAYMGASTPAQIAEAVKRVKASSADVVYFGGTDDTGSQLVKALRAAGVTATFMGGDGLDSPSFLQRAGIAGAGVVYSTVFGPVSAFSNALDFSDRYRAAYKTKPSGVAVYAYDATNTLLSAIKAAAGNSRTLPTRAEVSAAVRKVNLPACFSADKSRCATITGAIAFSDSGERLRSRVMIMRFDDVLQPQVAKVQTVNAESLKEGHHHHHH | soluble |
| MSLTYEKLYELRQTLRPTTKDGLYTDNEKNREILTVRWSGNTENPKNFSAVAIGINPSKANDERSDKTLTQLARFLDMYGFTNFKMLNIFSSYSTQQTGIRANTQTDFSKFKGCLEDADMIILAWGTDRGAYKDEKNRILEFLKAEKFMEKVFCISETGNSSDTRHPSRISYSYQLVQFEESAEGGSHHHHHH | soluble |
